The target in one assay is PD-L1 expressed on cells (UniProt Q9NZQ7 19-290, limits assumed). Put plainly: cell-based or functional assay.
Assay [1] has as its target T1, human PD-L1-Fc (R&D Systems, cat#156-B7) (human, UniProt Q9NZQ7 19-239).
T1 construct: Bought reagent; both are treated here as the same molecule; also called PD-L1 ligand; not shown: Fc part of the bought fusion protein
The experiment in a line: ELISA, plate coated with human PD-L1-Fc, detection with anti-human IgG F(ab')2-HRP. A general note: An ELISA detects its analyte on a solid surface through an enzyme-linked reagent.

The values below come from US20190010232A1 (Eli Lilly, published 2019).

T1 sequence (Q9NZQ7 19-239 limits assumed): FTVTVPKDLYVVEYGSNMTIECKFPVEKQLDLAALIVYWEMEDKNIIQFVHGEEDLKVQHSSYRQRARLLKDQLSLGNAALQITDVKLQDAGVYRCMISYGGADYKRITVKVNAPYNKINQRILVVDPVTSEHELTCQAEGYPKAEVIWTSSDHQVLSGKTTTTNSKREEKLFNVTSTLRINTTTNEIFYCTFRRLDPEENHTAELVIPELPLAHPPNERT
PD-L1 expressed on cells, sequence (Q9NZQ7 19-290 limits assumed): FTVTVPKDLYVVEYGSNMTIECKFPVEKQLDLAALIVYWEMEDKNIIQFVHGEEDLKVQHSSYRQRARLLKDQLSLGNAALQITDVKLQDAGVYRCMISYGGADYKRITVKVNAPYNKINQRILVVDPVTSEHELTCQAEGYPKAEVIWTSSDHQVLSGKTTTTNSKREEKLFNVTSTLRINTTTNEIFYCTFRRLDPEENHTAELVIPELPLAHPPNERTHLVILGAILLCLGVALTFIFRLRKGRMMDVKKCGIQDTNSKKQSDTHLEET

B1: parent PD-L1 antibody (as IgG1-EN homodimer) (antibody, V domains shown)
VH: QVQLVQSGAEVKKPGSSVKVSCKASGGTFSSYAISWVRQAPGQGLEWMGGIIPIFGTANYAQKFQGRVTITADKSTSTAYMELSSLRSEDTAVYYCARSPDYSPYYYYGMDVWGQGTTVTVSS
VL: QSVLTQPPSASGTPGQRVTISCSGSSSNIGSNTVNWYQQLPGTAPKLLIYGNSNRPSGVPDRFSGSKSGTSASLAISGLQSEDEADYYCQSYDSSLSGSVFGGGIKLTVL
notes: IgG1-EN homodimer; parent of the anti-PD-L1 arm of the bispecific antibodies; also called parental PD-L1 Ab; parental anti-PD-L1 antibody
Regarding B1, in the assay with PD-L1 expressed on cells, the “EC50, PD-1/NFAT Reporter Jurkat T cell assay with PD-L1 positive T cell activator CHO cells” value was 1.92 nM. Moreover, the EC50 in assay [1] turned out to be 0.47 nM.

What is called EC50 is the concentration at which the effect is half-maximal.
